From patent US20240252637A1

Target: CD19 on Namalwa cells (UniProt P15391)
Experiment: cell-based or functional assay

Chain of UniProt P15391 (P15391 20-556 limits assumed): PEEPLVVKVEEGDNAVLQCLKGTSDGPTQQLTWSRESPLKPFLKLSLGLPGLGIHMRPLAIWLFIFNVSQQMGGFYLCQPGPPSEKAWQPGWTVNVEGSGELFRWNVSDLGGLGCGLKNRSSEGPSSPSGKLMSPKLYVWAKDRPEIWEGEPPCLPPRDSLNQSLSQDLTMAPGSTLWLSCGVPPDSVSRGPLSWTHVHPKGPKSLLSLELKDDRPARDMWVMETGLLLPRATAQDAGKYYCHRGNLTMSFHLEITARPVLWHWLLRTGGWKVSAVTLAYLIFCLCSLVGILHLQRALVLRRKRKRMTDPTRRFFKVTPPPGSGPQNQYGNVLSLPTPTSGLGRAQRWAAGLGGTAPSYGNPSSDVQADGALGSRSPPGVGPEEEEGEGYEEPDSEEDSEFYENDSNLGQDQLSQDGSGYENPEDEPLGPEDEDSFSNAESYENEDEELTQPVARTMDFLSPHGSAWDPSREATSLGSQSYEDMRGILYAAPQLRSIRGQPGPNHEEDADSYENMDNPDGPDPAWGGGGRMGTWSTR

CD19-CAR (third generation anti-CD19 chimeric antigen receptor, from the lenti-EF1-CD19-3rd-CAR-eGFt plasmid, Creative Biolabs) on the surface of exosomes from CAR-T cells
Co-culture killing assay; decrease of CD19+ cells incubated with EXO-CD19-CAR: 60% | Cytotoxicity assay of EXO-CAR-T against tumor cells (Namalwa); CD19+ cells eliminated at 150 µg/mL EXO-CAR-T: 70%
